From PMC7173943

Columns and labels:
HA-CXCR4(D20R)-Rluc3 = HA-CXCR4(D20R)-Rluc3 (UniProt P61073)
CXCR4(D187C)-T4L = CXCR4(D187C)-T4L (UniProt P61073); test: cross-linking + pull-down; disulfide cross-linking: Cys mutants co-expressed in Sf9 cells; membranes solubilised in DDM/CHS; TALON metal affinity pull-down by the receptor His tag; non-reducing SDS-PAGE and Western blot (anti-Flag, anti-HA); IR800 signal relative to CXCR4(D187C)-vMIP-II(W5C) set to 100%

β-arrestin-2 recruitment to HA-CXCR4-Rluc3 (BRET2, HEK293T cells), pEC50 (HA-CXCR4(D20R)-Rluc3) | Substance | fraction of extracted receptor cross-linked (CXCR4(D187C)-T4L) [%]
5.89 -log10(EC50) | CXCL12(R47E) (from UniProt P48061-2 22-89) (ligand) | 
 | vMIP-II(W5C) (ligand) | 100
